This experiment concerns the target Toll-like receptor 4 (human (endogenous in monocyte-derived DCs)) (UniProt O00206).
Sequence of UniProt O00206 (O00206 24-839): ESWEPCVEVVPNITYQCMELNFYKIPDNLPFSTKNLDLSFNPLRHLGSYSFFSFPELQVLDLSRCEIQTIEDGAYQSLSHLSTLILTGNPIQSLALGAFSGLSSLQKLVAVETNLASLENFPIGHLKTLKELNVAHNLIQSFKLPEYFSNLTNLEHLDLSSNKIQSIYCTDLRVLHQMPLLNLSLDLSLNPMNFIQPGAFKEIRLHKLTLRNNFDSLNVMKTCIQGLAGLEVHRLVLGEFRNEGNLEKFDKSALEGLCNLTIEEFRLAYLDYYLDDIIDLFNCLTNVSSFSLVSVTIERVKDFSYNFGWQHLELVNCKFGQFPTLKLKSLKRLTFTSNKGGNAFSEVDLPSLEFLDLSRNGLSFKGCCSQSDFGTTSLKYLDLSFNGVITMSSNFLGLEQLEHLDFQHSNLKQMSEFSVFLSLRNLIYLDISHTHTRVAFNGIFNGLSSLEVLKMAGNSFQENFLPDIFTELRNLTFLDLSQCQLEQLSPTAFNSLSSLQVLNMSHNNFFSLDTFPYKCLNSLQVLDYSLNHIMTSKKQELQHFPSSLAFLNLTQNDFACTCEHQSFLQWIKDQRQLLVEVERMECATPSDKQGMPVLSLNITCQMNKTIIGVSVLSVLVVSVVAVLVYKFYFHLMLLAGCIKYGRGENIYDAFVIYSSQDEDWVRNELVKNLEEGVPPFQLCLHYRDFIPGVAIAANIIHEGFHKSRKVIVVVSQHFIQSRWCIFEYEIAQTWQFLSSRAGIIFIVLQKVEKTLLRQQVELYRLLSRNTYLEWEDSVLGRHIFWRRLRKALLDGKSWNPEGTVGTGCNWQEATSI

With “Enterovirus 71 virus-like particles (complex)”, the decrease of EV71 VLP (10 µg/mL)-induced IL-10 production by human DCs after pre-incubation with anti-TLR4 mAb (HTA125, 20 µg/mL), ELISA was 41%; the decrease of EV71 VLP (10 µg/mL)-induced IL-12 p40 production by human DCs after pre-incubation with anti-TLR4 mAb (HTA125, 20 µg/mL), ELISA is 48%; the decrease of EV71 VLP (10 µg/mL)-induced IL-12 p70 production by human DCs after pre-incubation with anti-TLR4 mAb (HTA125, 20 µg/mL), ELISA worked out at 68%.

These data come from article PMC4216083.
